Tests used:
Type in all cases: cell-based, murine
tyrosinase [1] = assay: Northern blotting of tyrosinase RNA in melan-a cells; settings: for RNA level of tyrosinase: 5 days
Description: These techniques were performed as described previously (Aroca et al., 1993). Briefly, 2.0 μg of mRNA, isolated using a total RNA isolation kit and mRNA purification kit (Promega, Madison, Wis.), were electrophoresed and then blotted to Sure-Blot nylon membranes (Oncor, Gaithersburg, Md.), hybridized with ^32P-labeled probes, dehybridized and rehybridized with other probes again as necessary. TYRS-J, the probe specific for tyrosinase, was kindly provided by Drs. H. Yamamoto and T. Takeuchi, Sendai, Japan and is described in Yamamoto et al Japan J. Genetics Vol 62:271-274, 1987. pMT4, specific for TRP1, was provided by Dr. S. Shibahara, Sendai, Japan and is described in Shibahara, S. et al Nucleic Acid Res. Vol 14:2413-2427, 1986. TRP2a, specific for TRP2 was provided by Dr. I. Jackson, Edinburgh, Scotland and is described in Jackson, I et al. EMBO Vol 11:527-535, 1992. gp100, specific for silver, was provided by Dr. Y. Kawakami, Bethesda, Md. and is described in Kawakami et al PNAS, Vol. 91, 6458-6462, 1994.
Recombinant agouti protein was purified from baculovirus system by Dr. Michael Ollmann in Dr. Gregory Barsh's laboratory by methods known in the art. 2×10^6 cells were seeded per 15 cm diameter dish. The medium was changed everyday, and fresh agouti protein and/or αMSH added everyday usually at 10 nM. To examine transcriptional regulation, total RNA was isolated and Northern blotting performed by methods described in Example 1. The A26 probe to the MSH-R was provided by Dr. R. Cone and is described in Mountjoy et al. Science 257:1248-1251, 1992. At the translational level, metabolic labeling was used in conjunction with immunoprecipitation as described in Example 1. Western blotting and enzyme assay was used to examine function.
First, it was determined whether the agouti protein had any effect on tyrosinase expression by Northern blotting. After 24 hours, the cells were harvested, total RNA isolated and hybridized with a probe for tyrosinase and detected by a phosphoimager. The activity of each band was measured by phosphoimager and the % control was corrected using GAPDH as a standard. […] It should be noted that in vivo, pheomelanin is synthesized within 24 hours after agouti RNA is apparent. Longer incubation times were also examined. 10 nM of agouti protein was added for 1, 2 or 4 days.
Total RNA was extracted from cells using an RNeasy total RNA isolation kit (QIAGEN, Catsworth, Calif.), following the manufacturer's instructions. 20 μg of total RNA was denatured, electrophoresed through 1.0% agarose gels, and transferred overnight at 23° C. to SureBlot nylon hybridization membranes (Oncor, Gaithersburg, Md.) in the standard manner. […]

MSH receptor = assay: Northern blotting of MSH receptor RNA in melan-a cells; settings: for RNA level of MSH receptor: 10 nM, 5 days
Description: The effects of agouti protein on expression of TRP1, TRP2, and the MSH receptor were examined.
Total RNA was extracted from cells using an RNeasy total RNA isolation kit (QIAGEN, Catsworth, Calif.), following the manufacturer's instructions. 20 μg of total RNA was denatured, electrophoresed through 1.0% agarose gels, and transferred overnight at 23° C. to SureBlot nylon hybridization membranes (Oncor, Gaithersburg, Md.) in the standard manner. Filters were prehybridized for 3 hours at 45° C. with Hybrisol I solution (Oncor, 50% formamide, 10% dextran sulfate, 1% SDS and blocking reagent), and then hybridized with a ^32P-labeled probe. […] A commercially available cDNA probe specific for glyceraldehyde-3-phospho-dehydrogenase (GAPDH) was used to standardize RNA loading on the blots. The cDNA probes were labeled using random primer extension and heated to 100° C. for 10 minutes, then cooled on ice for 10 minutes prior to adding to the hybridization solution. Hybridization was performed with the radiolabeled probes in Hybrisol I (3×10^7 cpm/10 ml) overnight at 45° C. with gentle shaking. Following the incubation, the blots were washed for 10 minutes at 23° C. with 2×SSC/10% SDS, then for 10 minutes with 0.2×SSC/0.5% SDS, and finally for 10 minutes with 0.1×SSC/0.1% SDS. The blots were then exposed in phosphoroimager cassettes at 23° C. for 1 hour and the densities of the bands were scanned using ImageQuant software. The % control for each probe was corrected for initial loading using comparison with the GAPDH standard. […] This was repeated as necessary until no remaining probe could be detected.

tyrosinase [2] = assay: Tyrosine hydroxylase enzyme assay on extracts of treated melan-a cells; settings: extracts of melan-a cells cultured 5 days; 10 nM
Description: Assays for melanogenic catalytic activities as described below were carried out at pH 6.8, 37° C. for 60 minutes. (1) Tyrosine hydroxylase activity was measured using the [^3H]tyrosine assay (Hearing and Ekel, 1976; Hearing, 1987). This method specifically measures the tritiated water produced during the hydroxylation of tyrosine to DOPA. (2) DOPA oxidase activity was measured using incorporation of [3-^14C]DOPA into acid-insoluble melanin as detailed previously (Aroca et al., 1993). (3) DOPAchrome tautomerase activity was measured by HPLC as the disappearance of DOPAchrome substrate and the production of DHICA rather than DHI; data are converted to pmol products by comparison with known standards. The HPLC assay was detailed previously (Palumbo et al., 1987; Tsukamoto et al., 1992). (4) DHI oxidase and DHICA oxidase activities were measured by HPLC as the disappearance of these substrates from reaction mixtures compared to controls for spontaneous auto-oxidation; data are converted to pmol by comparison with known standard (Aroca et al., 1993). (5) Melanin production was measured using incorporation of [^14C]tyrosine into acid-insoluble melanin, also as detailed previously (Hearing and Ekel, 1976; Hearing, 1987); pmol melanin produced are calculated from the radioactive product. […]

α-melanocyte stimulating hormone [MSH, reference compound]
RNA level of tyrosinase (tyrosinase [1]; 10 nM): almost a twofold increase | RNA level of MSH receptor (MSH receptor): no significant increase | tyrosine hydroxylase (tyrosinase [2]): 8.7 ± 2.8 pmol/μg protein/hr

B1: agouti protein: Recombinant murine agouti signal protein purified from a baculovirus expression system (protein)
chain: MDVTRLLLATLVSFLCFFTVHSHLALEETLGDDRSLRSDSSMNSLDFSSVSIVALNKKSKKISRKEAEKRKRSSKKKASMKKVARPPPPSPCVATRDSCKPPAPACCDPCASCQCRFFGSACTCRVLNPNC
expression of tyrosinase (RNA) (tyrosinase [1]; 10 nM, 2 or 4 days incubation): complete inhibition by day 2 | RNA level of tyrosinase (tyrosinase [1]; 10 nM): nearly a fivefold decrease | expression of tyrosinase (RNA, % control corrected using GAPDH) (tyrosinase [1]; 24 hours, 10 nM and 1 nM): significant dose dependent decreases | RNA level of MSH receptor (MSH receptor): no significant effect | level of RNA for the MSH receptor (MSH receptor; 24 hours, different concentrations): no significant effect | tyrosine hydroxylase (tyrosinase [2]): −1.2 ± 0.2 pmol/μg protein/hr

— patent US6579848B1, “Depigmenting activity of agouti signal protein and peptides thereof” (The United States of America as represented by the …, priority 1995, dated 2003)
